The results in this text go back to PMC6400189, “A three-domain copper-nitrite reductase with a unique sensing loop” (IUCrJ, 2019).

By stoichiometry N is commonly meant the number of molecules, sites or subunits per partner or assembly. What is called Km is the concentration of substrate that gives half-maximal velocity. As usually defined, the kcat is the maximal rate divided by the concentration of active sites.

Data set [1] concerns the target Copper-containing nitrite reductase (NirK) from Thermus scotoductus SA-01 (Thermus scotoductus SA-01). The experiment in a line: crystal structure; C121 crystal with the whole homotrimer in the asymmetric unit, 1.63 Å; 0.2 M CaCl2, 0.1 M HEPES sodium pH 7.5, 28% PEG 400, 16°C.
The target is the same in data set [2]. Nature of the data set: SEC; Superdex 200 10/300 column, 150 mM Tris-HCl pH 7.6, 0.5 ml/min, calibrated with mass markers; subunit mass by SDS-PAGE. (Size exclusion chromatography separates by hydrodynamic size, large species first.)
For data set [3] the target is unchanged. Nature of the data set: crystal structure; twinned H3 crystals with one protomer in the asymmetric unit; trimer by the crystallographic threefold axis; data not shown.
Substrate in data set [4]: O=NO
Nature of the data set: nitrite reductase kinetics, methyl viologen standard assay. Type of data set: biochemical, Thermus scotoductus. As to conditions: methyl viologen (dithionite-reduced) as artificial electron donor per standard NirK assay; apparent constant.

Regarding “Copper-containing nitrite reductase (NirK) from Thermus scotoductus SA-01 (enzyme)”, the stoichiometry N in data set [1], in data set [2] and in data set [3] was 3 in each case.

B1: TsNirK (Thermus scotoductus SA-01) (protein)
chain: AERHFTLEARSSIFEVDQGVYLRGFSFNDMSPGPMLVVEEGDTVHITLRNLDNVTHGLSIHAANTQTSRFLGNVQPGETREFSFTADFPGVFMYHCAPGGHGIMAHTMGGQFGMIVVEPKEKYRMERELGRGPDLKLYIIQSEAYASGRDFYDGKALYVMFNGRNFRYVDEPIPVRPGDYLRIYFLNVGPNLTSTLHVVGGIFEYMYYQGNPKNLVVGAQTALAGPSDSWVIEWRVPPVEGDYTLVTHVFGTAIKGALGILRAKKDAPRIPEVRAEGVPGVKEIPASAKRVVDPYGLASPGHEHTVRVPLDPALAQPVAVGAKALEPLPVTVQMVGNSFYPKVLEIPVGTTVEFVNEDVFDLLEGERTGRHDAVVIDVQGPEPFVTPKLGHGERYRITFTKPGEYVYICSIHPYMKGIIRVYEPLSQRADSQ
notes: codon-optimised gene in pET-22b(+), E. coli BL21(DE3); 451-residue subunits (~50 kDa), homotrimer, three Cu per subunit; domains Ala20-Glu137, Leu154-Ala282, Arg309-Leu444
For B1, in data set [4], the Km is listed as 27 ± 2 µM and the kcat was determined as 65 ± 1 s⁻¹.
